{"source": "patent US20150291521", "about": "“PYRROL-1-YL BENZOIC ACID DERIVATIVES USEFUL AS MYC INHIBITORS” (DANA-FARBER CANCER INSTITUTE, INC., published 2015)", "key": {"[1]": {"molecular_target": "Max/Max homodimer (Homo sapiens, UniProt P61244 P61244:1-160)", "sequence (P61244 whole entry, one chain of several)": "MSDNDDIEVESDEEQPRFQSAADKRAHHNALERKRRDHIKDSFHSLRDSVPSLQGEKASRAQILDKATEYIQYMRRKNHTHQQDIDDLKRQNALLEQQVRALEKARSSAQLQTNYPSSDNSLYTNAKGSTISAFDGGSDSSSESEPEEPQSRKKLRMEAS", "assay": "EMSA; Max/Max/Ebox complex; disrupted by compound 101, not 79", "conditions": "tags: His6-Max; chain copies: 2 (stated); label: 5' biotin-triethyleneglycol; self-complementary"}, "[2]": {"molecular_target": "c-Myc/Max heterodimer (Homo sapiens, UniProt P01106-1;P61244 P01106-1:1-439,P61244:1-160)", "sequence (P01106 16-454, chain 1 of 2)": "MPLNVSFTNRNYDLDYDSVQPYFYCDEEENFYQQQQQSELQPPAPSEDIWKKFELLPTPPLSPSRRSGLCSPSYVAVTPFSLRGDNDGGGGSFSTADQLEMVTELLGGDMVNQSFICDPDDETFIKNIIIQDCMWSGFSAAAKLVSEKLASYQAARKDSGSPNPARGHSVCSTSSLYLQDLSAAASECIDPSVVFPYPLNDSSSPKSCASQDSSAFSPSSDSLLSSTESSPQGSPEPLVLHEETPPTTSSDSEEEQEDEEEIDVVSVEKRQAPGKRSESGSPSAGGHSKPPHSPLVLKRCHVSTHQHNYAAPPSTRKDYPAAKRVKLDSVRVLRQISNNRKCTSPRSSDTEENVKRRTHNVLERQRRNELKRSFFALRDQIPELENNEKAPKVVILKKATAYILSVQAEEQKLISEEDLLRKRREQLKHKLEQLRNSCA", "sequence (P61244 whole entry, chain 2 of 2)": "as the sequence (P61244 whole entry, one chain of several) above", "assay": "EMSA; complex formed with purified proteins; inhibited dose-dependently by compound 63", "conditions": "tags: c-Myc full-length, His6 removed by thrombin (assay 1) or His6-c-Myc (reciprocal assay), label: 5' biotin-triethyleneglycol, self-complementary"}}, "data": [{"binder": "Ebox DNA (dsDNA) DNA 1: GGAAGCAGACCACGTGGTCTGCTTCC DNA 2: GGAAGCAGACCACGTGGTCTGCTTCC", "values": [{"measurement": "binding result", "setting": "[1]", "value": "binds"}, {"measurement": "binding result", "setting": "[2]", "value": "binds"}]}]}
